How the values were obtained:
[1] = system: 22Rv1 human prostate tumor xenograft; assay: Time dependent whole body imaging; type: in vivo, mouse; settings: 10 nmol, FIG. 6
Experimental: FIGS. 6A-6F: Overlay of whole body or half body fluorescence image over white light images after adjusting the threshold. 22Rv1 human prostate tumor xenograft bearing mouse was injected with 10 nmol of 1: OTL78 and imaged with IVIS imager (ex=745 nm, em=ICG, exposure time=1 s) at different time intervals.
Settings for imaging:—lamp level: medium; excitation: 745 nm; emission: ICG(830 nm); epi illumination; binning: 4 (M), FOV=12.5; f-stop=2; acquisition time=1 s. For time dependent studies, animals were imaged under anesthesia using isoflurane. Whole body imaging (intact tumor) experiments was then performed using a Caliper IVIS Lumina II Imaging Station with Living Image 4.0 software (PerkinElmer Inc, MA).

PSMA = molecular target: T1, PSMA (Homo sapiens, UniProt Q04609); assay: In vitro binding: relative binding affinity versus DUPA-FITC on PSMA-positive 22Rv1 cells; settings: 1 h at 37° C., 100 nM DUPA-FITC, FIG. 2, read-out: dissociation constant (KD)
T1 construct: PSMA-positive 22Rv1 human prostate cancer cells; endogenous in cells; host or cells: 22Rv1 human prostate cancer cells
T1 sequence (Q04609 whole entry): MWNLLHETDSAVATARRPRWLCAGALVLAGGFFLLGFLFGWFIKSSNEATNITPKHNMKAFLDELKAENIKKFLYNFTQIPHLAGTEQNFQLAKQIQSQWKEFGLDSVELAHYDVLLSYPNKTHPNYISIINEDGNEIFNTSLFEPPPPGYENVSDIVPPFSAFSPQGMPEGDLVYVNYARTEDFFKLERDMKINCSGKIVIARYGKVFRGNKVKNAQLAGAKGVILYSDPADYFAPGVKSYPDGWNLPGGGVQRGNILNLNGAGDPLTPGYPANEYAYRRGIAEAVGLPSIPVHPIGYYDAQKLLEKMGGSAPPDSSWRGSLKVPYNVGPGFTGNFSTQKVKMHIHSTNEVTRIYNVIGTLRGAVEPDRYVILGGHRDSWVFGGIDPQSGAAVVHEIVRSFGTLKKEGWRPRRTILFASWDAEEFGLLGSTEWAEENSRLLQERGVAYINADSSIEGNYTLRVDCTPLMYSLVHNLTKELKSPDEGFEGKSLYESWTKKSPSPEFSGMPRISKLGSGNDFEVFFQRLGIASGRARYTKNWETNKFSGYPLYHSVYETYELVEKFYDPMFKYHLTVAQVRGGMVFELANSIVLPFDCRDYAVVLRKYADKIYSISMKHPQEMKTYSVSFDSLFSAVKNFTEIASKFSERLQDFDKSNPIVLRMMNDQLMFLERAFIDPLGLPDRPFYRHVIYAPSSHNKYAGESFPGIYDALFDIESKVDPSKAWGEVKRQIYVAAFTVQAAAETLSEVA
Experimental: FIG. 2 illustrates the relative binding affinity of 1: OTL78 with respect to DUPA-FITC (14). PSMA-positive 22Rv1 human prostate cancer cells were incubated for 1 h at 37° C. in the presence of 100 nM DUPA-FITC with increasing concentrations of 1. Media was then removed, washed with fresh media three times, and replaced with PBS. Cell bound fluorescence was assayed as using flow cytometry.
General Methods: 22Rv1 cells (a human prostate cancer cells) were grown as a monolayer using RPMI medium (Gibco, NY) 10% heat-inactivated fetal bovine serum (Atlanta Biological, GA) and 1% penicillin streptomycin (Gibco, NY) in a 5% carbon dioxide: 95% air-humidified atmosphere at 37° C. for at least six passages before they were used for the assays.
In vitro binding and specificity: 22Rv1 cells were seeded into a T75 flask and allowed to form a monolayer over 24 h. After trypsin digestion, release cells were transferred into centrifuge tubes (1×10^6 cells/tube) and centrifuged. […] After rinsing with fresh medium (2×1.0 mL) and PBS (1×1.0 mL), cells were resuspended in PBS (1.0 mL) and cell bound fluorescence was analyzed (100,000 cells/sample) using a fluorometer (Cary, Agilent). The relative binding affinities were calculated using a plot of % cell bound fluorescence versus the log concentration of the test article using GraphPad Prism 4.

Row | Compound | time remained in the tumor [1] | time to saturation in PSMA-positive tumors [1] [h] | Kd (PSMA) [nM]
1 | CC1(C)C(/C=C/C2=C(Oc3ccc(C[C@H](NC(=O)[C@H](Cc4ccccc4)NC(=O)CCOCCOCCNC(=O)CC[C@H](NC(=O)N[C@@H](CCC(=O)O)C(=O)O)C(=O)O)C(=O)O)cc3)C(=C/C=C3/N(CCCCS(=O)(=O)O)c4ccc(S(=O)(=O)O)cc4C3(C)C)/CCC2)=[N+](CCCCS(=O)(=O)[O-])c2ccc(S(=O)(=O)O)cc21 [1: OTL78, DUPA_PEG2_Phe_Tyr-50456] | over 24 h | ≤ 2 | 
2 | DUPA_PEG2—Phe_Tyr-S0456 [compound 5] |  |  | 1
